Ends that are not written are not given here. FAM = 5(6)-carboxyfluorescein; Ahx = NCCCCCC(=O)O
Biological target: T1, recombinant mouse macrophage mannose receptor rmMMR/CD206 (Mus musculus, UniProt Q61830)
T1 construct: purchased R&D Systems 2535-MM-050
T1 sequence (Q61830 20-1456): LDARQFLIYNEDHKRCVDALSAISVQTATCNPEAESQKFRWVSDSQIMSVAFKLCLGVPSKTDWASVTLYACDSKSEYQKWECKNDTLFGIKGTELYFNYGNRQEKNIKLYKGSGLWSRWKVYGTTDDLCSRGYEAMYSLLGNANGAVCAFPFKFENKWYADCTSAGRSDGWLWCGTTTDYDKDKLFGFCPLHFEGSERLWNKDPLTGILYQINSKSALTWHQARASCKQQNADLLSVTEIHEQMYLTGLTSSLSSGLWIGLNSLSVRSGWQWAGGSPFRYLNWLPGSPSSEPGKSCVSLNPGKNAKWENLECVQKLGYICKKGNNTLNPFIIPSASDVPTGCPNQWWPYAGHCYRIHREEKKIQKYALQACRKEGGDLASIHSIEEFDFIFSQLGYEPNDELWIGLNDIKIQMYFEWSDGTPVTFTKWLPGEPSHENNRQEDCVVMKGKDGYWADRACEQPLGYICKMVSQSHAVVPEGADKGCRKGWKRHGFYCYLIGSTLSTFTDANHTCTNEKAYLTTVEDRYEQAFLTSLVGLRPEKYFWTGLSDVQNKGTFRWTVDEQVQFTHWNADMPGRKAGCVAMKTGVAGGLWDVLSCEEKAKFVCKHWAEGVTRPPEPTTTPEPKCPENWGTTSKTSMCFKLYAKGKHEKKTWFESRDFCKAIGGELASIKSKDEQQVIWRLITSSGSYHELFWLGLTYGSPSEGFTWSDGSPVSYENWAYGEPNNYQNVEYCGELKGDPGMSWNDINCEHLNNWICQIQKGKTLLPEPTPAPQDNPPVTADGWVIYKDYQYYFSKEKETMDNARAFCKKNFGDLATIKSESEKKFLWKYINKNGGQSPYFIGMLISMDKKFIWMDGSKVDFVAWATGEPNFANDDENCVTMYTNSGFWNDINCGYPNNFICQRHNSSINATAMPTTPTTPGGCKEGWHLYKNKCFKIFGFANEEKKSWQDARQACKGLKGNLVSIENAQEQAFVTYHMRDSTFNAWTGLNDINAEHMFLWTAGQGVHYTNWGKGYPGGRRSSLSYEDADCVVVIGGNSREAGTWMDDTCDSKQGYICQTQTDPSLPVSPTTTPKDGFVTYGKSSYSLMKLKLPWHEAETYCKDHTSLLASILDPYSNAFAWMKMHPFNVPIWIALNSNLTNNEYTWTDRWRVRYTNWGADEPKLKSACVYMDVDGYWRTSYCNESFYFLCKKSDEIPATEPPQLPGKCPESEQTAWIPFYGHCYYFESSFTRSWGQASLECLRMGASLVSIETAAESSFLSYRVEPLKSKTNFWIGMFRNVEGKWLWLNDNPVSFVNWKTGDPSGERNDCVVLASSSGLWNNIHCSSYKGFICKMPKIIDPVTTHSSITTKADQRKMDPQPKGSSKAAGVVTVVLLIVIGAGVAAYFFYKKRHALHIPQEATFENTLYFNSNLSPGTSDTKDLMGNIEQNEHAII
Assay: Fluorescence anisotropy assay with mouse recombinant CD206
Format: binding
Settings: 50 nM FAM peptide, 1 μM protein, 25 °C
Procedure: The stocks of fluorescent ligands (FAM-UNO, FAM-CSPGAK and FAM-CPMTDNE) in mQ water were stored at −20° C. […], 150 mM NaCl, 1 mM CaCl2, 0.1% Pluronic F-127, pH 7.4) on the day of experiment. The concentration of fluorescent ligands was determined by absorbance of FAM (E495=75000 M^−1 cm^−1).
The recombinant mouse macrophage mannose receptor rmMMR/CD206 (R&D Systems, catalog number: 2535-MM-050) and recombinant mouse CD163 (R&D Systems, catalog number: 7435-CD-050) were reconstituted at 1 mg/ml in IB, aliquoted and stored at −20° C. To generate linearized version of cyclic FAM-UNO peptide, the peptide at 1 mM concentration was preincubated for 24 h at room temperature in a dark place with 3 mM DTT and diluted with IB 2×10^5 times before the FA assay. The control experiment with FAM-CPMTDNE peptide (FIG. 22) was performed to rule out the possibility of disulphide bond formation, which could affect the binding properties of linear peptides. Initially, the peptide was preincubated in DMSO for 4 days at room temperature to enhance the disulphide bond formation, and then diluted in IB buffer with 3 mM DTT, and the disappearance of preformed dimer was observed as a change in FA signal.
In all experiments, FA signal measurements were done under pseudo first-order conditions with 50 nM singly labelled FAM peptides and 1 μM proteins. […] Assays were carried out in kinetic mode in a total volume of 30 μl at 25° C. on the PHERAstar (BMG Labtech, Germany) microplate reader using an optical module with excitation and emission filters of 485 nm (slit 10 nm) and 520 nm (slit 10 nm), respectively. Dual emission detection mode allows simultaneous recording of intensities that are parallel (l) and perpendicular (1) to the plane of excitation light. […] The background fluorescence (receptor and buffer components in the absence of fluorescent ligand) was subtracted independently from all intensity channels. FA signals at time t after initiation of binding reaction was calculated as parameters r(t) from the equation: […]

Substance	change in fluorescence anisotropy (interaction) with mouse recombinant CD206
FAM-CSPGAK: FAM-labeled linear CSPGAK (SEQ ID NO: 6) (not fully specified; FAM label)	clear time-dependent increase of anisotropy
FAM-UNO: FAM-labeled UNO peptide CSPGAKVRC (SEQ ID NO: 1); 5(6)-carboxyfluorescein with 6-aminohexanoic acid spacer at the N-terminus ({FAM-Ahx}-CSPGAKVRC; cysteine pairing not given here)	did not cause a change in the fluorescence anisotropy

From US11571484B2, “Compositions that target tumor-associated macrophages and methods of use therefor” (Sanford Burnham Prebys Medical Discovery Institute, priority 2017, dated 2023)
